Reference: US10597674B2, “HPPD variants and methods of use” (BASF Agricultural Solutions Seed, US LLC, priority 2015, dated 2020)

Key:
[1] = tested on: E. coli cells expressing an HPPD polypeptide; experiment: Brown Color Assay on solid LB-agar, visual score of brown pigment; type: cell-based; design: key to brown pigment formation: +++: a dark brown coloring as seen for E. coli cells expressing one of the respective mutant HPPD polypeptide without inhibitor; ++: medium brown pigmentation; +: light brown pigmentation; 0: no brown pigmentation development was detected on the LB agar plates
Experimental: Mutant HPPD polypeptides were analyzed using a brown color assay (WO2014/043435). Bacterial cells expressing the mutant HPPD polypeptide according to the invention were assayed in 96 well format for HPPD inhibitor tolerance by spotting on solid media containing LB-agar, selection agent for the expression vector pSE420(RI)NX (WO2014/043435), 5 mM tyrosine (Sigma-Aldrich, St. Louis, USA), 42 mM succinate (Sigma-Aldrich, St. Louis, USA) and six different concentrations of the HPPD inhibitor herbicide Cmpd. 1 (0-500 μM). In the brown color assay, an overnight culture of the E. coli cells expressing one of the respective mutant HPPD polypeptides were diluted to an OD600 of 1 and 10 μl extract was spotted in triplicates on plates containing 0, 25, 50, 100, 250, or 500 μM of Cmpd. 1. Plates were covered with airpore tape and incubated at 30 degrees C. After 24 hours, the cells were kept in darkness at room temperature and after 7 days the brown pigment formation was scored visually. In the presence of an HPPD inhibitor herbicide, this pigment formation is inhibited and the color of the agar plate will not alter, unless an HPPD inhibitor herbicide tolerant HPPD polypeptide is expressed and active. […] The “++” and “+” scores a medium and light brown pigmentation, respectively, and the “0” means that no brown pigmentation development was detected on the LB agar plates.

[2] = tested on: transgenic soybean T0 events; experiment: Greenhouse spray test of T0 soybean events, herbicide tolerance rating 0-3; type: in vivo; details: Cmpd. 1 300 g AI/ha; for number of events with Herbicide Tolerance Rating 0: five days after application; for number of events with Herbicide Tolerance Rating 1: rating 1 = slight tolerance, 50-95% leaf damage; for number of events with Herbicide Tolerance Rating 2: rating 2 = moderate tolerance, 10-49% of leaf area; for number of events with Herbicide Tolerance Rating 3: rating 3 = good tolerance, less than 10% of leaf area
Experimental: Tolerant green shoots were transferred to rooting media or grafted. Rooted plantlets were transferred to the greenhouse after an acclimation period. Plants containing the transgene were then sprayed with HPPD inhibitor herbicides, as for example with mesotrione at a rate of 300-600 g AI/ha, or with Cmpd. […] Five to ten days after the application, the symptoms due to the application of the herbicide were evaluated and compared to the symptoms observed on wild-type plants under the same conditions.
For example, T0 soybean plants having a “plant expression cassette”, which includes an HPPD inhibitor tolerant HPPD polypeptide of the present invention, were tested towards the tolerance of Cmpd. 1.
Prior greenhouse trials with the transgenic plants, soybean transformants were routinely analyzed for the expression and presence of the transgenes using the ELISA protein detection method (see detailed description under item D and H). Only plants recovering in the selection media and having a detectable HPPD transgene protein expression were used for the herbicide tolerance analysis. A DeVries Tracker Sprayer was calibrated prior to each spraying. The chemical formulation used for Cmpd. 1 was supplemented with ammonium sulfate and methylated rape seed oil. Spray tests were conducted with a concentration, which equals to 300 grams AI per hectare (300 g AI/ha). Tolerance was evaluated 5 days after spraying. […] A rating of “3” was assigned to plants showing good tolerance, i.e. less than 10% of the leaf area from the top three trifoliate leaves showing chlorosis or only very slight bleaching.

[3] = tested on: transgenic T1 soybean events; experiment: Field trials of T1 soybean events, leaf damage eight days after application; type: in vivo
Experimental: Soybean plants expressing an HPPD inhibitor tolerant polypeptide of the present invention alone, or along with a gene conferring tolerance to glyphosate and/or a gene conferring tolerance to glufosinate or having a “plant expression cassette”, which includes only an HPPD inhibitor tolerant polypeptide of the present invention, were tested for tolerance to different HPPD inhibitor herbicide chemical classes. The transgenic plants were routinely analyzed for the expression and presence of the transgenes using the ELISA protein detection method (see detailed description under item D and H). Only plants recovering in the selection media and having a detectable HPPD transgene protein expression were regenerated, transferred to the greenhouse and used at V2-V4 growth stage for the HPPD inhibitor herbicide tolerance analysis of the T0 soybean events in the greenhouse (Example 6). The chemical formulation with HPPD inhibitor herbicides was supplemented with ammonium sulfate and methyl ester rapeseed oil. Herbicide tolerance evaluation was taken 5-21 days after spraying. The best performing independent T0 soybean events were selfed to produce T1 soybean seeds. In the field trails, the advanced T1 soybean seeds were planted and treated with either 210 g/ha of isoxaflutole or 150 g/ha of Cmpd.
In Table 10, the frequency of the soybean events showing a good tolerance, i.e. equal or less than 15% damage of the total leaf area are summarized

[4] = 25 μM Cmpd. 1, scored after 7 days
[5] = 50 μM Cmpd. 1, scored after 7 days
[6] = 100 μM Cmpd. 1, scored after 7 days
[7] = 250 μM Cmpd. 1, scored after 7 days
[8] = 500 μM Cmpd. 1, scored after 7 days
[9] = 150 g/ha Cmpd. 1, stage V2-V4, eight days after application
[10] = 210 g/ha isoxaflutole, stage V2-V4, eight days after application

B1: SEQ ID NO: 32: mutant HPPD polypeptide: P268R T270E E335P G336H N337S A340V I345V (protein)
chain: MADLYENPMGLMGFEFIEFASPTPGTLEPIFEIMGFTKVATHRSKNVHLYRQGEINLILNNEPNSIASYFAAEHGPSVCGMAFRVKDSQKAYNRALELGAQPIHIDTGPMELNLPAIKGIGGAPLYLIDRFGEGSSIYDIDFVYLEGVERNPVGAGLKVIDHLTHNVYRGRMVYWANFYEKLFNFREARYFDIKGEYTGLTSKAMSAPDGMIRIPLNEESSKGAGQIEEFLMQFNGEGIQHVAFLTDDLVKTWDALKKIGMRFMTAPRDEYYEMLEGRLPDHGEPVDQLQARGILLDGSSVEGDKRLLLQIFSETLMGPVFFEFIQRKGDDGFGPHSFKVLFESVERDQVRRGVLTAD
modifications: mutant HPPD polypeptide
notes: mutant HPPD polypeptide: P268R T270E E335P G336H N337S A340V I345V
brown pigment formation [1, 4]: +++ | brown pigment formation [1, 5]: +++ | brown pigment formation [1, 6]: +++ | brown pigment formation [1, 7]: ++ | brown pigment formation [1, 8]: + | proportion of T0 soybean events with less than 10% leaf damage ([2]; five days): ~72% | number of events with Herbicide Tolerance Rating 0 [2]: 1 | number of events with Herbicide Tolerance Rating 1 ([2]; five days): 0 | number of events with Herbicide Tolerance Rating 2 ([2]; five days): 10 | number of events with Herbicide Tolerance Rating 3 ([2]; five days): 28 | Frequency in the population (events with ≤15% leaf damage) [3, 9]: 42% | Independent events with ≤15% leaf damage after spray [3, 9]: 10 | Frequency in the population (events with ≤15% leaf damage) [3, 10]: 50% | Independent events with ≤15% leaf damage after spray [3, 10]: 12

B2: SEQ ID NO:2 (protein)
chain: MADLYENPMGLMGFEFIEFASPTPGTLEPIFEIMGFTKVATHRSKNVHLYRQGEINLILNNEPNSIASYFAAEHGPSVCGMAFRVKDSQKAYNRALELGAQPIHIDTGPMELNLPAIKGIGGAPLYLIDRFGEGSSIYDIDFVYLEGVERNPVGAGLKVIDHLTHNVYRGRMVYWANFYEKLFNFREARYFDIKGEYTGLTSKAMSAPDGMIRIPLNEESSKGAGQIEEFLMQFNGEGIQHVAFLTDDLVKTWDALKKIGMRFMTAPPDTYYEMLEGRLPDHGEPVDQLQARGILLDGSSVEGDKRLLLQIFSETLMGPVFFEFIQRKGDDGFGPWNFAQLFESIERDQVRRGVLTAD
modifications: mutant HPPD polypeptide
proportion of T0 soybean events with less than 10% leaf damage ([2]; five days): 54% | Percentage events rated “2 & 3” ([2]; five days, less than 50% leaf damage): 83%

B3: SEQ ID NO: 96: mutant HPPD polypeptide: R213K P268G T270E E335P G336H N337S A340V I345V (protein)
chain: MADLYENPMGLMGFEFIEFASPTPGTLEPIFEIMGFTKVATHRSKNVHLYRQGEINLILNNEPNSIASYFAAEHGPSVCGMAFRVKDSQKAYNRALELGAQPIHIDTGPMELNLPAIKGIGGAPLYLIDRFGEGSSIYDIDFVYLEGVERNPVGAGLKVIDHLTHNVYRGRMVYWANFYEKLFNFREARYFDIKGEYTGLTSKAMSAPDGMIKIPLNEESSKGAGQIEEFLMQFNGEGIQHVAFLTDDLVKTWDALKKIGMRFMTAPGDEYYEMLEGRLPDHGEPVDQLQARGILLDGSSVEGDKRLLLQIFSETLMGPVFFEFIQRKGDDGFGPHSFKVLFESVERDQVRRGVLTAD
modifications: mutant HPPD polypeptide
notes: mutant HPPD polypeptide: R213K P268G T270E E335P G336H N337S A340V I345V
brown pigment formation [1, 4]: +++ | brown pigment formation [1, 5]: ++ | brown pigment formation [1, 6]: ++ | brown pigment formation [1, 7]: ++ | brown pigment formation [1, 8]: + | number of events with Herbicide Tolerance Rating 0 [2]: 0 | number of events with Herbicide Tolerance Rating 1 ([2]; five days): 5 | number of events with Herbicide Tolerance Rating 2 ([2]; five days): 43 | number of events with Herbicide Tolerance Rating 3 ([2]; five days): 34 | Frequency in the population (events with ≤15% leaf damage) [3, 9]: 70% | Independent events with ≤15% leaf damage after spray [3, 9]: 14 | Frequency in the population (events with ≤15% leaf damage) [3, 10]: 55% | Independent events with ≤15% leaf damage after spray [3, 10]: 11

B4: SEQ ID NO: 31: mutant HPPD polypeptide: P268G T270E E335P G336H N337S A340V I345V (protein)
chain: MADLYENPMGLMGFEFIEFASPTPGTLEPIFEIMGFTKVATHRSKNVHLYRQGEINLILNNEPNSIASYFAAEHGPSVCGMAFRVKDSQKAYNRALELGAQPIHIDTGPMELNLPAIKGIGGAPLYLIDRFGEGSSIYDIDFVYLEGVERNPVGAGLKVIDHLTHNVYRGRMVYWANFYEKLFNFREARYFDIKGEYTGLTSKAMSAPDGMIRIPLNEESSKGAGQIEEFLMQFNGEGIQHVAFLTDDLVKTWDALKKIGMRFMTAPGDEYYEMLEGRLPDHGEPVDQLQARGILLDGSSVEGDKRLLLQIFSETLMGPVFFEFIQRKGDDGFGPHSFKVLFESVERDQVRRGVLTAD
modifications: mutant HPPD polypeptide
notes: mutant HPPD polypeptide: P268G T270E E335P G336H N337S A340V I345V
brown pigment formation [1, 4]: +++ | brown pigment formation [1, 5]: +++ | brown pigment formation [1, 6]: +++ | brown pigment formation [1, 7]: ++ | brown pigment formation [1, 8]: + | number of events with Herbicide Tolerance Rating 0 [2]: 4 | number of events with Herbicide Tolerance Rating 1 ([2]; five days): 1 | number of events with Herbicide Tolerance Rating 2 ([2]; five days): 21 | number of events with Herbicide Tolerance Rating 3 ([2]; five days): 30 | Frequency in the population (events with ≤15% leaf damage) [3, 9]: 86% | Independent events with ≤15% leaf damage after spray [3, 9]: 12 | Frequency in the population (events with ≤15% leaf damage) [3, 10]: 93% | Independent events with ≤15% leaf damage after spray [3, 10]: 13
